69 sequences from the domain aggregation screens of Martell et al. (2025) can be followed below.

A short description of the series: soluble fraction after stress (log2 fold change); higher = more stays soluble; pooled small domains, quantitative proteomics. To be noted: stress: pH 4. Summed up:
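Pooled custom libraries of small protein domains were stressed at pH 4 and then measured by high-throughput quantitative proteomics. The fold change in the amount of each domain that stays soluble after the acid stress serves as a measure of aggregation propensity. Fold changes are given on a log2 scale, and higher values mean more of the domain stayed soluble.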

“HMLLKIRPDLDGNEIMKLLNIAAGPNVGKAYEHLLELRLEHGPLGKERAEQELMNWWSARSQ”: the “soluble fraction (log2)” value was -0.371.
In the case of “HMLLNSLIDTLAAEKATVVPGTEVFKLYDTYGFPWELTEEIASERGFTIDHEGFEAAMKEQRERAREARV” it was 0.0336.
As to “HMLLNTSQLKELYNRYDKKNSSLISIPFSAISDEPLKFYKWYAALFQIELNVKAFADVDSKQIIIYKGTK”, the “soluble fraction (log2)” value was -0.175.
In the case of “HMLLRSEDAIELGKSQLEDALAPYKIETLDTGTVQQLLDSLKLNSLESLYQEIGLGNRMSTIIAHRLLGE” it was -0.88; in that of “HMLLSFYGTYGNVKLTGKELEDLQKEFPFDYQARIDRLSAYMESSGRKYHSHFATIRSWAQDDAKKN”, 0.173; in that of “HMLLSYDIAEYIEKYIHEHGLQPGDRLPTERELAAQLDITRVSVRQGYKRLLDQGVIRSENGYYVNPPR”, 0.0914.
On to “HMLLTDGLERRIDGDKNLHIRISLPMLVKGQIKLAKSGNNESTVKGIFKIESYPGSHPRDVVTEIIEG”, for which the “soluble fraction (log2)” value is -0.0816.
To “HMLLTHPKRVFTYELIMELVWNEDYTFYSKKAVSNHMSNLRKKLKVTPDALDYIKNIVGVGYKFEA” belongs -0.0812; to “HMLMKKTITHEIELLEFLKQIFPQSSTNKLRKMLSNGRIKINSEIVHKAKYKLQENDTFELLDNPT”, -0.0208; to “HMLNEIMDTINKYISDKRNNKVAQNILSAALDELNSQIRVGLKDLNPHSIEEFKENVINSPYIEFEQG”, -0.126.
In the case of “HMLNEWIDYIDEHIKEELTAKNLATVFGYSERHFRNVFQIYYDIKLNDYIRRRKLYFAAQELKKG” it was -1.76; in that of “HMLNMSVYDKQLLRAVENNPFISQRELARELHWNVDRVKYYMKKWKDKGGLRHVGSSHKGYWEVLVRIEEK”, -0.0578; in that of “HMLNNVDIHKLSEDLLLYKIKIDIKLKNIEDAISTIDYFSNKFPNSDLMPYVIYEKKLIDNI”, -0.741.
To “HMLNPLLLPFVEAEDFQVKLEILAAMEGKVGEEDLDILYEALDLPKMTGNIEEQIHSIKQYIEMRK” belongs -1.39; to “HMLNPVEKLLLLSQLYIGRLKGSFVVKEKHHKSTILGEVRELSPEEITLKTDEGYRLIRVDDILTIQL”, -0.704.
As for “HMLNSLDATQRLKLNKDGVVVFNFGKYVDQSVIDIFKKEKGYYNWMMSKDFSQQVKNIITKIYQEEIIG”, the “soluble fraction (log2)” value is -0.0228.
In the case of “HMLNTLGADIRALRKARGLTLAELAQTLGRSVGWLSQVERDMSEPGINDLRDLARALDVSISSLFG”, the “soluble fraction (log2)” value was -0.366.
In the case of “HMLNWINSDVLERFNSLTKEKQKAIVADTETRLNGLSQARFKVAKSSSNERLIAEFAIEINEAIMRAAAL” it was -0.894; in that of “HMLPADETEARVLNVLGSEPLHVDEIRNQADLPIEKISATLAMMELKGMVRQVGGMNYVAMR”, -0.892.
To “HMLPANGEAIYHYLASGAIKGVGPVTAQRIVDKFGEDTFDVLENNPLWLAEIKGITRKTAENIGAAFAAQF” belongs -0.263; to “HMLPDAESFSYEVPYTKGDGGTYNYEGKIKAQNADAARDEIIRQAQVYFQMNPQFTPDYPSTTITSLD”, 0.0666.
To “HMLPDDDMLLNILTKLLIDKQFVINSHEIFDFIIKRANRSYEEMFILVNKLDQLSLEKKRQLTIPLIKEI” belongs -1.22; to “HMLPDLQESIDELLNIVDQRLNTSFEELVSGVNTTEKAIAFFLALLETIKWGFIKAEQTNNENKINIEKNY”, -1.4.
Turning to “HMLPDPIYEAFMMASDLGIVVRNGPQYAYPDKETGEVLYKALGREKFLQLMKDNDGLLTSIETEIRSM”, the “soluble fraction (log2)” value was -1.3.
In the case of “HMLPKTVTLIDPVSGVAKTVTWVPALTLYSARRKAGLNRVPNTATIDRGGRELTGKRGSTLQPGDVVRW” it was at least 0.43; in that of “HMLPPLGDQELELLRFITESAPITVREAAESYGKDRGLARTTVLTMMERLRAKGYLTRSESGAANEYSP”, -0.148; in that of “HMLPPVFLTIDANENVIVRKDGEPVQTLNKFELGAFARSQAENSAEQPVVLAADKSIKYEVVMEVI”, -0.378.
To “HMLPRLVLSPGTEVLATVMGKYENGMSLVKISSHLFAMDLPSRVQVGDSLRMTFLHQDARPTFALA” belongs -0.142; to “HMLPSDLDEGNRRRQLIEGAARLFRAKGFDGTSTRDIAAAAGMRSGSPFYHFDSKNALLYVVVQEGM”, -0.115.
To “HMLPSWLPTDAWEAFLEARVAMKARPTERAKGLLLGELSKLVSQGQDARAVLEQSVQRGWRGLFPVK” belongs 0.0676.
Consider “HMLPSWPGVSEFEVARLLRRGRARGSLTLDEVIDVVRDAELTSELIAGIRSSLRAEGIDFEET”, for which the “soluble fraction (log2)” value was -1.85.
For the sequence “HMLPTLSLSVKIYKGEGDIALDLEEMVKAFDQLNFGSYPFSEKGVHGTNIVIRGNDKKHMEEAEDKVRSLT”, the “soluble fraction (log2)” value is -0.959.
To “HMLPVDALFAQHPALIVTLGQTEKLKHGAAIRDWHFADGTYRVYSETGEFLLLGTVKGQILTTVKSFFE” belongs -0.828.
On to “HMLQARKFTHIQGYEFEAEFLRTNGEFVELQDPQGRKKWFPISNFIQDDKDFIKEQAGNLSS”, for which the “soluble fraction (log2)” value was -0.903.
In the case of “HMLQEFTLELATAVVQEFRDQPGALINALHKLQETFGYVDEAAMPVLARLFNLSRAEVHGVASFYHDFRRS” it was -1.35; in that of “HMLQEHVLEIRHPSWNDAFRIIGHDGWRTQTGAHAAILSYDEEELNIKWDSWGYERFIRDEKGIFRLAA”, -0.165.
To “HMLQESDPEALRGIVKSVLVDHAAVAEEYRAGKQSVLQFLVGQGMKASKGAGNPGLIRDLMLEEL” belongs -0.184.
To “HMLQLSDAISRVESFLQGQNRNLAFSIDENTERSVVTVLDSDTGDVIRQIPSEELLVLAKRIQELQQD” belongs -1.19.
On to “HMLQMSDSSALEAILDEVLGSEMGQKALSDIEAGNMKAMGFIIGQSMKLSKGQANPQIINKLLQQRLK”, for which the “soluble fraction (log2)” value is -0.487.
To “HMLQNLGFKPDLEIRHFPGIVLPDIHRSKKTISLLYTLLAGDIKKLPENEINYKDSKIISSYLWTLLRYH” belongs 0.22; to “HMLQSGSDYLIEQVRMYTATGQREYMDNYFEELNTTRRRENALEYFAEHYGDNDAFTLLKSAMTTSQN”, -0.691.
To “HMLQVRRILQLLADGYSKRQISQQTAVSRNTIDSYEDRFHLTGKSYQELLSMEDGELSGIVYP” belongs 0.321; to “HMLQVSDENFVVELVQKVLLDNPSSVQEYKNGKESVLQFLIGQAMKASKGTANPQIVKEIMLKLL”, -0.443.
In the case of “HMLQYSQEIEEAQKILQNLGLYKGEIDGINGVNTKSAIKEFQRKSGLIIDGILGPNTTSALSKGAESYITV” it was 0.0398.
As to “HMLRISEEVWALVEKTLREDWSPEQVSGKLKASGISVSHERIYQHIYADKRVGGTLWTHLRR”, the “soluble fraction (log2)” value was -0.767.
In the case of “HMLRLLEIIAGNEVSKEINSQVIKYYKALKNKKIEEINNLTPSYNKLIISFDLKKKNFREMKKIIEDISIN” it was -0.436; in that of “HMLRPEEMIYHEMLDAILDRRLEPGMKLVEEDLAKTFGVSRARIRATFLQLAHDKLINLVPNRGAFVAEP”, -0.561.
On to “HMLRRNQVQSQVIPRENGSYVVELQLRDDVDSILRLELTAATEAMARDLADRFRQDPEGVYTRLLSALY”, for which the “soluble fraction (log2)” value was -1.57.
In the case of “HMLRTEYLTVNYAKASEVAELVTASGFLSSRGSITVDERTNTLLLQDTATNIDEVRFMLEQLD” it was -0.868; in that of “HMLSADLLDKIQRIDSLEQQGKYAQAEKEARALLSDPSITPSERASVQNILSSIARKKAAQAQ”, 0.0475.
To “HMLSAGTTEQRLAMLQYQWEKQSETYSALGPNNGVVTLGQIRNTMAKIAELAGFKDAAQFWMPVPMDYDV” belongs -0.491; to “HMLSAPMPGTVLEVHVKEGQRVREGQTLVVMEAMKMEHRVQAPRAGVVTKLHYSEGDRVDVGAILVEIG”, -1.31.
In the case of “HMLSAQEIPVEDIATRDFVLAEDVVSAKKVLLLPKGVDLSWFGSAKKRLVQRLKSEGVTHIRVFA” it was 0.008; in that of “HMLSFSEAERAVLSLLNRRPDLSAKALASELAVSARTVERYLQSLQQKGKLLRVGAKKGGYWQV”, 0.115.
In the case of “HMLSGNLTADAHVHRGLQALSDGRNEDALVDFTKATEVQADFAEAWNKRATVNYLLGRYDAAVLDIQKTLE”, the “soluble fraction (log2)” value turned out to be 0.0958.
For “HMLSLDDAAFERYDLTMREREVLLLLLNRLTYEEIAERLFISTNTVKTHVGNVYKKTGVSSRKELVSK”, the “soluble fraction (log2)” value is -0.953.
To “HMLSLGQQIRNHVLSRIESGEWPEGSRIPSEAKLVELLGASRMTIHIALRDLSAEGVLLRKQGAGTFVAPR” belongs -0.553; to “HMLSRKEVFTVSQKDIEKNPIGAADKFFDGHVGIHKLLVVDEEDRLRGLFTLSDIERINDEQ”, -0.0114; to “HMLSRTYDSSGPDVKIRGTAQTVADKYMSLARDAQSSGDRVMAENYLQHAEHYNRIIAAAQAQ”, 0.221.
“HMLSSEQQQKLDSLSRKELEVAELVSHGATNKMIARTMNITERTVKAHLTAIFQKMNIPDRLSLAIFFRDL”: the “soluble fraction (log2)” value amounted to 0.0769.
For the sequence “HMLSSNEIKEIFALFDKSNRGQVATSELGTLVRALNLNPTETEITDMQSKVDPKGQGSFTLDVLEKVVQD”, the “soluble fraction (log2)” value was -0.929.
To “HMLSVNREQVEQSLKQEWGFDYDKNLRAAQRAIDVYGDDDLKLLLNGPTGNDPAIVKLFARLGGEVTEE” belongs -0.813; to “HMLSYIELTVDNTSKASYIMTDKMKINNFKIIGNNTIRVYENKVSPQDISRTLSMNNVSIEALGRKS”, -0.253.
In the case of “HMLSYNINEESKSSIMNVNVLKNNFASIDVEKLQNIIFTTFKKYNYYLNDFSSMNLLLHLLIIVDREL” it was -0.172; in that of “HMLTEKEEEVMQILWDNGPLFVREILEFYPDPKPHYNTVSTVIRVLEEKNFASHKAYGNTYQYFP”, 0.18; in that of “HMLTLEDMTRINSIISPRIKKGQSLYHIAKNNGDELNISESTLRRLVMTGEMDAGIIDLPQAVK”, -0.333.
To “HMLTLTNREKQVLVYIAKGHQVAQIAYELKLSGHTINGYIKTIYQKLHISSRAEAALLAQQYGL” belongs -0.138.
“HMLTRQNFHGIKLPTIHEYIDLLNSRVNANIDKTNNWQSSVSHLRTYLNSHNINAVSKESINNYIDERLN”: the “soluble fraction (log2)” value worked out at 0.0397.
To “HMLTRRQSEVLDFIRQFAESESMPPTLHEIAKGMGFSSDNAARDHVRALARKGAIDLVGGTSRGIRLR” belongs -0.331.
